According to US8501487B2, “Composition for use as a peptide retention standard and a method of predicting peptide hydrophobicity in liquid chromatography” (University of Manitoba, priority 2008, dated 2013):
Where two headings read alike, the source gives them in different places.

How the values were obtained:
[1] = Isocratic RP HPLC: log k vs φ plots, UHI (acetonitrile concentration at k=10) and S slope; assay type: physicochemical; conditions: for S value (slope in LSS equation): isocratic, TFA, pH 2; for UHI 100 Å C18 − TFA / UHI 100 Å C18 − FA / UHI 300 Å C18 − TFA / UHI 100 Å C18 − pH 10: acetonitrile concentration (ACN %) at k=10, isocratic, in %; for UHI 100 Å C18 − TFA: 0.1% TFA; for UHI 100 Å C18 − TFA / UHI 100 Å C18 − FA / UHI 300 Å C18 − TFA: ~25° C.; for UHI 100 Å C18 − FA: 0.1% formic acid; for UHI 300 Å C18 − TFA: Vydac 218 TP C18, 0.1% TFA; for UHI 100 Å C18 − pH 10: XTerra C18, 20 mM ammonium formate pH 10, ~25° C.
Source text: Accordingly, in a further embodiment of the present disclosure there is included, a method of predicting hydrophobicity of a peptide: • (a) measuring retention time for each peptide of a standard peptide mixture at three or more different concentrations of acetonitrile under isocratic conditions; • (b) calculating a retention coefficient k for each peptide in the mixture and at each concentration of acetonitrile using equation (2) k=(tR−tO)/TOc (2) • wherein • tR is the retention time, • tO is system dead time, and • TOc is column dead time; • (c) for each peptide in the mixture, plotting log k vs φ, wherein φ is the acetonitrile volume fraction; • (d) for each peptide in the mixture, determining the value of φ when log k=1 and converting this to acetonitrile concentration to provide a universal hydrophobicity index (UHI); • (e) plotting retention times of each peptide vs its UHI; • (f) determining the retention time of an unknown peptide under the isocratic liquid chromatographic conditions; and • (g) determining from the plot in (e) the value of UHI that corresponds to the retention time of the unknown peptide, • wherein the UHI correlates to the hydrophobicity of the unknown peptide.
Two chromatographic setups: micro-flow 3 μl/min and “semi-micro” at 150 μl/min were employed utilizing a micro-Agilent 1100 Series system (Agilent Technologies, Wilmington, Del.) with two column sizes: 300 μm×150 mm (micro) and 1 mm×100 mm (semi-micro). The three stationary phases studied included: Vydac 218 TP C18, 300 Å pore size, 5 μm (Grace Vydac, Hesperia, Calif.); Luna C18(2) 100 Å, 5 μm (Phenomenex, Torrance, Calif.) and XTerra C18, 120 Å, 5 μm (Waters, Milford, Mass.). Three different ion-pairing systems with linear water-acetonitrile gradients were employed: 0.1% trifluoroacetic acid (TFA) in both eluents A and B (Vydac and Luna), 0.1% formic acid (FA, Luna) and 20 mM ammonium formate pH 10 (XTerra). This provided us with four different mobile/stationary phase combinations corresponding to four versions of SSRCalc model: 100 and 300 Å for TFA, 100 Å with FA and 100 Å at pH 10. Gradient separations of the 6-peptide mixture in “semi-micro” flow mode were performed in all four systems using 0.5, 1, 2 and 4% acetonitrile per minute gradient slopes.
Stock solutions of the 6 custom peptides (˜1 mg/ml) were prepared by dissolving in 1 ml of 0.1% TFA in water (20% acetonitrile for peptides #5 and 6). Ten microliters sample injection was applied for “semi-micro” conditions in both isocratic and gradient modes. Individual peptides, their mixture and the S1-S5 retention standard were diluted to provide ˜0.5-1 μg injection of each component. 214 nm UV detection was used. All chromatographic experiments were conducted at room temperature, ˜25° C. Dead volume of the column and connecting tubings was measured using injection of non-retained compound (water) and measuring elution time of negative peak. Retention coefficients for isocratic elution were calculated using the formula: k=(tR−t0)/t0c; where tR is retention time, t0 and t0c—system (column and tubings) and column dead time.
Since accurate measurement of ACN % hydrophobicity using gradient elution is problematic it is proposed to use isocratic conditions for this purpose. […] This confirms once again that peptides elute from reversed-phase sorbents within a very narrow range of acetonitrile concentration. It is clear as well that the slope of these dependencies decrease systematically as peptide hydrophobicity increase. This is the reason for narrowing ACN percentage scale for shallow gradients in FIG. 2.
It is proposed to use acetonitrile concentration at which the capacity factor of any given peptide is equal to 10 (at room temperature ˜25° C.) as a measure of peptide hydrophobicity. This value is referred to herein as peptide Universal Hydrophobicity Index (UHI), since it depends only on type of the sorbent and ion-pairing modifier. […]

[2] = rhGH tryptic digest, literature data; cited from earlier work
[3] = Gradient RP HPLC: acetonitrile concentration at elution and ACN % range covered; assay type: physicochemical; conditions: gradient conditions (FIG. 2c), Luna C18(2), 0.1% TFA, gradient delay time 4.3 min taken into account
Source text: A one percent per minute acetonitrile gradient starting from 0% was used for all separations. The retention time difference between first and last peaks on chromatograms gives direct indication of ACN % scale covered. […] Such wide coverage is very important, especially for nano- and micro-flow proteomics LC applications. While normal-flow gradient system technology is well established, in nano scale LC gradient reproducibility is harder to achieve. The correct retention time distribution of the standard peptides of the present disclosure confirms the proper development of the gradient, especially at the beginning of the chromatogram. Also note the uniform distribution of the six peaks of the peptide composition of the present disclosure throughout the chromatogram; such uniformity is rarely observed in standard peptide mixtures derived from protein digests. […]
Stock solutions of the 6 custom peptides (˜1 mg/ml) were prepared by dissolving in 1 ml of 0.1% TFA in water (20% acetonitrile for peptides #5 and 6). […] Dead volume of the column and connecting tubings was measured using injection of non-retained compound (water) and measuring elution time of negative peak. Retention coefficients for isocratic elution were calculated using the formula: k=(tR−t0)/t0c; where tR is retention time, t0 and t0c—system (column and tubings) and column dead time. […]

Row | Substance | S value (slope in LSS equation) ([1]; Luna C18(2)) | S value (slope in LSS equation) [2] | UHI 100 Å C18 − TFA ([1]; Luna C18(2)) | UHI 100 Å C18 − FA ([1]; Luna C18(2)) | UHI 300 Å C18 − TFA [1] | UHI 100 Å C18 − pH 10 [1] | acetonitrile concentration at k=10 ([1]; isocratic conditions, Luna C18(2), TFA (FIG. 3)) | concentration of acetonitrile required for elution [3]
1 | ALILTLVS [peptide purchased from Bachem, singly charged at pH 2, reference compound] | 13.47 | – | – | – | – | – | – | –
2 | ISLLLIQSWLEPVQFLR [Peptide T9, tryptic digest product of recombinant human growth hormone] | – | 18.5 | – | – | – | – | – | –
3 | LGGGGGGDFR [custom synthesized standard peptide] | – | – | 10.74 | 4.58 | 8.40 | 6.80 | – | –
4 | LGGGGGGDGSR [custom synthesized standard peptide] | – | – | 3.97 | <0 | 1.89 | 1.14 | – | –
5 | LLGGGGDFR [custom synthesized standard peptide] | – | – | 15.53 | 8.55 | 13.35 | 13.65 | – | –
6 | LLLGGDFR [custom synthesized standard peptide] | – | – | 20.72 | 13.08 | 18.90 | 18.29 | – | –
7 | LLLLDFR [custom synthesized standard peptide] | 14.69 | – | 26.07 | 18.26 | 24.78 | 24.18 | 26.1% | 29.6%
8 | LLLLLDFR [custom synthesized standard peptide] | – | – | 29.58 | 21.59 | 28.60 | 28.94 | – | –
9 | QTYSK [Peptide T14, tryptic digest product of recombinant human growth hormone] | – | 24.3 | – | – | – | – | – | –
